Reference: publication PMC3124419, “Elucidating the domain architecture and functions of non-core RAG1: The capacity of a non-core zinc-binding domain to function in nuclear import and nucleic acid binding” (BMC Biochemistry, 2011)

Tests used:
MBP-bZDD = target: T1, MBP-bZDD (murine, UniProt P15919 218-380); test: EMSA; 5 mM Mg2+; EMSA: 10 mM Tris pH 8.0, 5 mM MgCl2, 2 mM DTT, 6% glycerol, 100 mM NaCl, 25 C, 1 nM 32P-DNA; 3.5/8% discontinuous nondenaturing gel; settings: protein: recombinant; tags: N-terminal MBP; chain copies: 2; blunt
T1 sequence: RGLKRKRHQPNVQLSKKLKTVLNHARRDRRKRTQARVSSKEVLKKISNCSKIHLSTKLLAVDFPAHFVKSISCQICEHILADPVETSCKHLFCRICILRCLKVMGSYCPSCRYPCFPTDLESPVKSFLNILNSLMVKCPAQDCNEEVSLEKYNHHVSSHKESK

[1] = target: T2, MBP-CND (RAG1 central non-core domain) (murine, UniProt P15919 87-217); test: EMSA; 5 mM Mg2+; range covers EMSA and anisotropy; EMSA: 10 mM Tris pH 8.0, 5 mM MgCl2, 2 mM DTT, 6% glycerol, 100 mM NaCl, 25 C, 1 nM 32P-DNA; 3.5/8% discontinuous nondenaturing gel; settings: protein: recombinant; tags: N-terminal MBP; blunt
T2 sequence: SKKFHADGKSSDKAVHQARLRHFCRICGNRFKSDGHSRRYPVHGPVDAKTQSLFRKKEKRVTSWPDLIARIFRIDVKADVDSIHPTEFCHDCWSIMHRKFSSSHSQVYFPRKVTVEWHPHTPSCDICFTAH

[2] = target: T2, MBP-CND (RAG1 central non-core domain); test: competition; 1.5 uM MBP-CND, 1 nM labeled WT 12-RSS; EMSA: 10 mM Tris pH 8.0, 5 mM MgCl2, 2 mM DTT, 6% glycerol, 100 mM NaCl, 25 C, 1 nM 32P-DNA; 3.5/8% discontinuous nondenaturing gel; settings: protein: recombinant; tags: N-terminal MBP; blunt
[3] = target: T2, MBP-CND (RAG1 central non-core domain); test: fluorescence anisotropy; range covers EMSA and anisotropy; EMSA: 10 mM Tris pH 8.0, 5 mM MgCl2, 2 mM DTT, 6% glycerol, 100 mM NaCl, 25 C, 1 nM 32P-DNA; 3.5/8% discontinuous nondenaturing gel; settings: protein: recombinant; tags: N-terminal MBP; blunt
[4] = target: the molecule itself; test: SEC-MALS; MALLS-SEC of MBP fusion proteins, 20 mL Superdex 200, starting concentration 3-10 μM, GFB buffer (20 mM Tris pH 8.0, 0.2 M NaCl, 50 μM ZnCl2, 5 mM βME)
MBP-CND+bZDD = target: T3, MBP-CND+bZDD (murine, UniProt P15919 87-380); test: EMSA; 5 mM Mg2+; EMSA: 10 mM Tris pH 8.0, 5 mM MgCl2, 2 mM DTT, 6% glycerol, 100 mM NaCl, 25 C, 1 nM 32P-DNA; 3.5/8% discontinuous nondenaturing gel; settings: protein: recombinant; tags: N-terminal MBP; chain copies: 2; label: 5' 32P; hairpin, fully complementary
T3 sequence: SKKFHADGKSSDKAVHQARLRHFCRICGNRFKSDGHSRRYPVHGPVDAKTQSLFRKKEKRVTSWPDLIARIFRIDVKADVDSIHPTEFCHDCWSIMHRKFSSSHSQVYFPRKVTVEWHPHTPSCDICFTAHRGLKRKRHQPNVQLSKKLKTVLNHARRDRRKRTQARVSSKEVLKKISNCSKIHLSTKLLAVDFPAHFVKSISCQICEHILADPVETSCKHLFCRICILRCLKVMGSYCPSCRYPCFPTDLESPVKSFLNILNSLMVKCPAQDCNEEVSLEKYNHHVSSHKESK

[5] = target: T2, MBP-CND (RAG1 central non-core domain); test: as above; settings: protein: recombinant; tags: N-terminal MBP; label: 5' 32P; hairpin, fully complementary

B1: WT 12-RSS (dsDNA)
DNA 1: GATATGGCTCGTCTTACACAGTGATATAGACCTTAACAAAAACCTCCAATCGAGCGGAG
DNA 2: CTCCGCTCGATTGGAGGTTTTTGTTAAGGTCTATATCACTGTGTAAGACGAGCCATATC
Q: For B1, which Kd (MBP-bZDD) is on record?
A: ~1730 nM

Q: What about the Kd [1] of the same binder?
A: 1550 nM

B2: mutant heptamer (MH) 12-RSS (dsDNA)
DNA 1: GATATGGCTCGTCTTAGAGAAGCATATAGACCTTAACAAAAACCTCCAATCGAGCGGAG
DNA 2: CTCCGCTCGATTGGAGGTTTTTGTTAAGGTCTATATGCTTCTCTAAGACGAGCCATATC
Q: Does B2 bind [2]?
A: binds

B3: WT 12-RSS, Oregon Green (dsDNA)
DNA 1: GATATGGCTCGTCTTACACAGTGATATAGACCTTAACAAAAACCTCCAATCGAGCGGAG
DNA 2: CTCCGCTCGATTGGAGGTTTTTGTTAAGGTCTATATCACTGTGTAAGACGAGCCATATC
Q: Which Kd [3] does the source give for B3 here?
A: 1550 nM

B4: MBP-bZDD (domain or fragment, murine, UniProt P15919 218-380, looked up)
chain: RGLKRKRHQPNVQLSKKLKTVLNHARRDRRKRTQARVSSKEVLKKISNCSKIHLSTKLLAVDFPAHFVKSISCQICEHILADPVETSCKHLFCRICILRCLKVMGSYCPSCRYPCFPTDLESPVKSFLNILNSLMVKCPAQDCNEEVSLEKYNHHVSSHKESK
notes: RAG1, murine, residues 218-380 (basic region plus zinc dimerization domain, ZDD 265-380); Four zinc ions per monomer; Predicted dimeric mass 123,634 Da; also called MBP-RAG1(218-380); basic-zinc dimerization domain fused to MBP; source: E. coli BL21, purified (amylose resin, SEC); not shown: MBP, N-terminal, kept
Q: How did the “stoichiometry N” value [4] turn out when B4 was run?
A: 2

Q: What does the source list for GATATGGCTCGTCTTATAAGACGAGCCATATC (structured_DNA) [32 nt hairpin coding flank]?
A: binding result (MBP-CND+bZDD): binds; binding result [5]: binds

B5: mutant nonamer (MN) 12-RSS (dsDNA)
DNA 1: GATATGGCTCGTCTTACACAGTGATATAGACCTTAAGGCTCTGATCCAATCGAGCGGAG
DNA 2: CTCCGCTCGATTGGATCAGAGCCTTAAGGTCTATATCACTGTGTAAGACGAGCCATATC
Q: Does B5 bind [2]?
A: binds
